Where two headings read alike, the source gives them in different places.
Experiments:
parainfluenza virus = type: cell-based; details: MA-104 cells
influenza virus [1] = type: cell-based; details: Influenza (type A [H3N2])
EMCV = EMCV antiviral dye-uptake assay in HepG2 cells; type: cell-based, human; details: dye-uptake OD570
vaccinia virus = type: cell-based; details: Vero cells
[2] = test system: encephelomyocarditis virus; experiment: Antiviral assay: cytopathic effect in HeLa cells; type: cell-based, human
rhino virus = type: cell-based
BVDV = BVDV CPE inhibition assay in MDBK cells; type: cell-based; details: MDBK bovine kidney cells
Method: IFNα and RIBAVIRIN® were used as positive controls. Test sample were added at the time of viral infection.

west nile virus [3] = type: cell-based; details: Vero cells
[4] = test system: venezuelan equine encephalitis virus; type: cell-based; details: Vero cells
coxsackie virus = type: cell-based; details: Coxsackie B4 virus, KB cells
[5] = test system: encephelomyocarditis virus; experiment: Antiviral assay: cytopathic effect in L929 cells; type: cell-based, mouse
pichinde virus = type: cell-based
west nile virus [6] = type: cell-based; details: Vero cells; remark: listed apart in the source
OAS = OAS activity in serum and plasma of mice (RIA)
[7] = test system: human marrow mononuclear cells; experiment: Bone marrow expansion assay (Alamar Blue); type: cell-based
[8] = test system: ISG gene expression (OAS, Pkr, Mx1); experiment: ISG gene induction in liver, spleen and blood of injected mice; type: in vivo, mouse; details: for OAS (24 hr): mice, expression relative to internal HPRT; for OAS- 1 hr: 1 hr after single injection of 250 μg i.v.; for OAS- 1 hr / OAS-6 hr / OAS-24 hr / OAS-48 hr: average of 5 animals; for OAS-6 hr: 6 hr after single injection of 250 μg i.v.; for OAS-24 hr: 24 hr after single injection of 250 μg i.v.; for OAS-48 hr: 48 hr after single injection of 250 μg i.v.
Method: In addition, E. coli derived IL-29 was also tested in in vivo assays as described above using MetIL-29C172S-PEG and MetIL-29-PEG. At various time points and at different doses, ISG gene induction was measured in the blood, spleen and livers of the mice.
Mice were sacrificed at various time points (1 hr-48 hr). Spleens and livers were isolated from mice, and RNA was isolated. RNA was also isolated from the blood cells. The cells were pelleted and RNA isolated from pellets using RNAEasy®-kit (Qiagen). RNA was treated with DNase (Amicon) to rid RNA of any contaminating DNA. cDNA was generated using Perkin-Elmer RT mix (Perkin-Elmer). ISG gene induction was measured by real-time PCR using primers and probes specific for mouse OAS, Pkr and M×1. To obtain quantitative data, HPRT real-time PCR was duplexed with ISG PCR. A standard curve was calculated using known amounts of IFN-stimulated mouse PBLs. All data are shown as expression relative to internal HPRT expression.
Results shown are fold expression relative to HPRT gene expression. […] The data shown is the average expression from 5 different animals/group.
Data shown is fold expression over HPRT expression from livers of mice. Similar data was obtained from blood and spleens of mice.

dengue virus = type: cell-based; details: Vero cells
[9] = test system: venezuelan equine encephalitis virus; type: cell-based; details: Vero cells; remark: listed apart in the source
[10] = test system: respiratory syncytial virus; type: cell-based; details: MA-104 cells
HHV-8 = HHV-8 replication in BCBL-1 cells (TaqMan PCR)
influenza virus [11] = type: cell-based; details: Influenza (type A [H3N2]); remark: listed apart in the source
[12] = Maden-Darby Canine Kidney cells

B1: IL-29: human IL-29, previously designated zcyto21, SEQ ID NO:4 (protein, listed as Homo sapiens)
chain: MAAAWTVVLVTLVLGLAVAGPVPTSKPTTTGKGCHIGRFKSLSPQELASFKKARDALEESLKLKNWSCSSPVFPGNWDLRLLQVRERPVALEAELALTLKVLEAAAGPALEDVLDQPLHTLHHILSQLQACIQPQPTAGPRPRGRLHHWLHRLQEAPKKESAGCLEASVTFNLFRLLTRDLKYVADGNLCLRTSTHPEST
modifications: SIGNAL (1)...(19)
EC50 NR (parainfluenza virus): >10 µg/mL | IC50 NR (parainfluenza virus): >10 µg/mL | EC50 Visual (influenza virus [1]; [12]): >10 µg/mL | IC50 Visual (influenza virus [1]; [12]): >10 µg/mL | EC50 Visual (influenza virus [1]; Vero cells): >10 µg/mL | IC50 Visual (influenza virus [1]; Vero cells): >10 µg/mL | EC50 antiviral activity (EMCV): 0.0006 µg/mL | EC50 Visual (vaccinia virus): >10 µg/mL | IC50 Visual (vaccinia virus): >10 µg/mL | Percentage Cytopathic Effect ([2]; relative CM concentration .008X): 56% | Percentage Cytopathic Effect ([2]; relative CM concentration .0156X): 31% | Percentage Cytopathic Effect ([2]; relative CM concentration .0325X): 10% | Percentage Cytopathic Effect ([2]; relative CM concentration .0625X): 10% | Percentage Cytopathic Effect ([2]; relative CM concentration .125X): 5% | Percentage Cytopathic Effect ([2]; relative CM concentration .25X): 0% | Percentage Cytopathic Effect ([2]; relative CM concentration .5X): 0% | EC50 NR (rhino virus; Rhino 2, KB cells): >10 µg/mL | IC50 NR (rhino virus; Rhino 2, KB cells): >10 µg/mL | EC50 NR (rhino virus; Rhino 9, HeLa cells): 0.982 µg/mL | IC50 NR (rhino virus; Rhino 9, HeLa cells): >10 µg/mL | IC50 inhibition of cell death induced by BVDV (BVDV): 0.19 µg/mL | EC50 NR (west nile virus [3]): 0.00025 µg/mL | IC50 NR (west nile virus [3]): >10 µg/mL | EC50 Visual [4]: 0.012 µg/mL | IC50 Visual [4]: >10 µg/mL | EC50 Visual (coxsackie virus): >10 µg/mL | IC50 Visual (coxsackie virus): >10 µg/mL | Percentage Cytopathic Effect ([5]; relative CM conc. .008X): 87% | Percentage Cytopathic Effect ([5]; relative CM conc. .0156X): 87% | Percentage Cytopathic Effect ([5]; relative CM conc. .0325X): 87% | Percentage Cytopathic Effect ([5]; relative CM conc. .0625X): 87% | Percentage Cytopathic Effect ([5]; relative CM conc. .125X): 87% | Percentage Cytopathic Effect ([5]; relative CM conc. .25X): 87% | Percentage Cytopathic Effect ([5]; relative CM conc. .5X): 87% | EC50 Visual (pichinde virus): >10 µg/mL | IC50 Visual (pichinde virus): >10 µg/mL | EC50 Visual (west nile virus [6]): 0.032 ng/mL | IC50 Visual (west nile virus [6]): >10 µg/mL | OAS activity in the serum and plasma of mice (OAS; C57BL/6 mice, i.v, 10 μg-250 μg): induced OAS activity | OAS-1 hr (OAS activity) (OAS; mouse plasma, 250 μg i.v., 1 hr): 80 pmol/dL | OAS-6 hr (OAS activity) (OAS; mouse plasma, 250 μg i.v., 6 hr): 80 pmol/dL | OAS-24 hr (OAS activity) (OAS; mouse plasma, 250 μg i.v., 24 hr): 180 pmol/dL | OAS-48 hr (OAS activity) (OAS; mouse plasma, 250 μg i.v., 48 hr): 200 pmol/dL | bone marrow cell expansion ([7]; in the presence of IL-2 or IL-15): small inhibition | expansion of bone marrow cells ([7]; in the presence of IL-3, IL-4, IL-5, IL-7, IL-10, IL-12, IL-21 or no added cytokine): no significant effect | TC50 (BCBL-1 cells): > 10 µg/mL | time of peak expression of ISGs after injection ([8]; C57BL/6 mice): 1 to 6 h | ISG gene expression (OAS, Pkr, Mx1) in the livers, spleen and blood of mice ([8]; C57BL/6 mice, i.p or i.v, 10 μg-250 μg): induced ISG gene expression | OAS (24 hr) ([8]; injection 10 μg): 3.7 | OAS (24 hr) ([8]; injection 50 μg): 4.2 | OAS (24 hr) ([8]; injection 250 μg): 6 | OAS- 1 hr ([8]; mouse blood): 12 fold expression relative to HPRT gene expression | OAS-6 hr ([8]; mouse blood): 18 fold expression relative to HPRT gene expression | OAS-24 hr ([8]; mouse blood): 11 fold expression relative to HPRT gene expression | OAS-48 hr ([8]; mouse blood): 10 fold expression relative to HPRT gene expression | OAS- 1 hr ([8]; mouse liver): 2.5 fold expression relative to HPRT gene expression | OAS-6 hr ([8]; mouse liver): 4 fold expression relative to HPRT gene expression | OAS-24 hr ([8]; mouse liver): 2.5 fold expression relative to HPRT gene expression | OAS-48 hr ([8]; mouse liver): 2.8 fold expression relative to HPRT gene expression | OAS- 1 hr ([8]; mouse spleen): 4 fold expression relative to HPRT gene expression | OAS-6 hr ([8]; mouse spleen): 6 fold expression relative to HPRT gene expression | OAS-24 hr ([8]; mouse spleen): 3.2 fold expression relative to HPRT gene expression | OAS-48 hr ([8]; mouse spleen): 3.2 fold expression relative to HPRT gene expression | EC50 Visual (dengue virus): 0.032 µg/mL | IC50 Visual (dengue virus): >10 µg/mL | EC50 NR [9]: 0.05 µg/mL | IC50 NR [9]: >10 µg/mL | EC50 NR [10]: >10 µg/mL | IC50 NR [10]: >10 µg/mL | TI (TC50/IC50) (HHV-8): > 1.85 | IC50 HHV-8 viral replication (HHV-8; extracellular HHV-8 DNA): 6.5 µg/mL | EC50 NR (influenza virus [11]; [12]): >10 µg/mL | IC50 NR (influenza virus [11]; [12]): >10 µg/mL | EC50 NR (influenza virus [11]; Vero cells): 2 µg/mL | IC50 NR (influenza virus [11]; Vero cells): >10 µg/mL
